Measured values: PMC9765508, “Metabolic Promiscuity of an Orphan Small Alarmone Hydrolase Facilitates Bacterial Environmental Adaptation” (mBio, 2022)

Experiments:
[1] = molecular target: T1, B. subtilis Rel (Bacillus subtilis, UniProt O54408); assay: […]-labelled nucleotide hydrolysis, TLC; assay type: biochemical; conditions: 20 mM Tris-HCl pH 7.5, 1 mM MnCl2, 37 °C, 240 nM enzyme; labelled compound
T1 construct: gene relA; purified; construct and tag not described

[2] = test system: Nc1ncnc2c1ncn2[C@@H]1O[C@H](COP(=O)(O)OP(=O)(O)OP(=O)(O)O)[C@@H](OP(=O)(O)OP(=O)(O)O)[C@H]1O; assay: purified protein; assay type: biochemical, Xanthomonas campestris; conditions: 20 mM Tris-HCl pH 7.5, 1 mM MnCl2, 37 °C, 25 nM enzyme
[3] = test system: Nc1nc2c(ncn2[C@@H]2O[C@H](COP(=O)(O)OP(=O)(O)OP(=O)(O)O)[C@@H](OP(=O)(O)OP(=O)(O)O)[C@H]2O)c(=O)[nH]1; assay: purified protein; assay type: biochemical, Xanthomonas campestris; conditions: 20 mM Tris-HCl pH 7.5, 1 mM MnCl2, 37 °C, 50 nM enzyme
[4] = test system: Nc1nc2c(ncn2[C@@H]2O[C@H](COP(=O)(O)O)[C@@H](OP(=O)(O)OP(=O)(O)O)[C@H]2O)c(=O)[nH]1; assay: purified protein; assay type: biochemical, Xanthomonas campestris; conditions: 20 mM Tris-HCl pH 7.5, 1 mM MnCl2, 37 °C, 50 nM enzyme
[5] = test system: Nc1nc2c(ncn2[C@@H]2O[C@H](COP(=O)(O)OP(=O)(O)O)[C@@H](OP(=O)(O)OP(=O)(O)O)[C@H]2O)c(=O)[nH]1; assay: purified protein; assay type: biochemical, Xanthomonas campestris; conditions: 20 mM Tris-HCl pH 7.5, 1 mM MnCl2, 37 °C, 50 nM enzyme
[6] = substrate: NC(=O)C1=CN([C@@H]2O[C@H](COP(=O)(O)OP(=O)(O)OC[C@H]3O[C@@H](n4cnc5c(N)ncnc54)[C@H](OP(=O)(O)O)[C@@H]3O)[C@@H](O)[C@H]2O)C=CC1; assay: phosphate release, malachite green assay, Michaelis-Menten fit; assay type: biochemical, Xanthomonas campestris; conditions: 20 mM Tris-HCl pH 8, 1 mM MnCl2, 37 °C, 1 μM enzyme
Source text: phosphate release, malachite green assay, Michaelis-Menten fit on XccSAH

T1 sequence (O54408 whole entry): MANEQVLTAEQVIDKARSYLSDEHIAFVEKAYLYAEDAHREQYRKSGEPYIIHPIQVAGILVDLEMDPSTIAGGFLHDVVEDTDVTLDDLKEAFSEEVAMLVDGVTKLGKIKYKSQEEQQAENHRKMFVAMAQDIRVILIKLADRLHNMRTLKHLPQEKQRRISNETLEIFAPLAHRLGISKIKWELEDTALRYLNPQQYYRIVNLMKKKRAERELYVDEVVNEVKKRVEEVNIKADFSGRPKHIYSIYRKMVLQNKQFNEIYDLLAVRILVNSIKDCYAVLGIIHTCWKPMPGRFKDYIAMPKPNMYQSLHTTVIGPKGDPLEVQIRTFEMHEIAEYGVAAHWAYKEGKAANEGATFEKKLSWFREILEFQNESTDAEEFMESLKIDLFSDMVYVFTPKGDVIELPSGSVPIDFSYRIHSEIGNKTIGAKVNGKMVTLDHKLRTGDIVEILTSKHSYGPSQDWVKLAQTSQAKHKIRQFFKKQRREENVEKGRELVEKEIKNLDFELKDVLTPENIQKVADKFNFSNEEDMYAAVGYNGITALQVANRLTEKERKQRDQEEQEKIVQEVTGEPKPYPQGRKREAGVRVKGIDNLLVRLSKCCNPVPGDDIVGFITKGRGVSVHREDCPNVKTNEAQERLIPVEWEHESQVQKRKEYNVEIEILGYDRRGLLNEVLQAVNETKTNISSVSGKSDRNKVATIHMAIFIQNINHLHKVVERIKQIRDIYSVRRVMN

Question: For Nc1nc2c(ncn2[C@@H]2O[C@H](COP(=O)(O)O)[C@@H](OP(=O)(O)OP(=O)(O)O)[C@H]2O)c(=O)[nH]1 [pGpp], which “32P-labelled nucleotide hydrolysis, TLC” value [1] is on record?
Answer: The value was “We found that B. subtilis Rel could also hydrolyze pGpp to GMP”.

Question: What does the source list for “XccSAH (Xanthomonas campestris pv. campestris str. ATCC 33913)”?
Answer: Km [2]: 45.82 ± 3.87 µM; Vmax [2]: 73.1 µM/min; kcat [2]: 48.8 ± 2.99 s⁻¹; kcat/Km [2]: 1.07e+06 ± 75000 M⁻¹ s⁻¹; Km [3]: 29.14 ± 4.41 µM; Vmax [3]: 42.9 µM/min; kcat [3]: 14.3 ± 1.45 s⁻¹; kcat/Km [3]: 493000 ± 25000 M⁻¹ s⁻¹; Km [4]: 19.73 ± 4.75 µM; Vmax [4]: 4.89 µM/min; kcat [4]: 1.63 ± 0.07 s⁻¹; kcat/Km [4]: 86000 ± 18000 M⁻¹ s⁻¹; Km [5]: 14.13 ± 2.02 µM; Vmax [5]: 21 µM/min; kcat [5]: 6.99 ± 0.15 s⁻¹; kcat/Km [5]: 500000 ± 82000 M⁻¹ s⁻¹

B1: XccSAH (Xanthomonas campestris pv. campestris str. ATCC 33913) (protein)
chain: MTALTERYAQAVDYARIAHAGQLRKGTQIPYLSHLLGVSTLVLECGGDEDQAIAGLLHDVVEDCGGGHEGSIRAQFGDAVADIVMACTDATAEDKADVDNTASARKRDWRERKQSYLAHLRKTPERALLVSGCDKLYNARTIVQDLENPDVGQEIFNVFTAGRDGTLWYYAALEEIFRTRKAATARLFSGVVARMQALADSSIDTVPAHAVA
Question: Which Km [6] does the source give for B1 here?
Answer: The Km was 132.2 ± 39.09 µM.

Question: What about the Vmax [6] of the same molecule?
Answer: The Vmax was 2.88 µM/min.

Question: And the kcat [6]?
Answer: Its kcat is 0.048 ± 0.004 s⁻¹.

Question: What about the kcat/Km [6] of the same molecule?
Answer: Its kcat/Km is 363 ± 20 M⁻¹ s⁻¹.
